Laboratory results reported in the supplement of paper PMC9112550, “Optimization of the antimicrobial peptide Bac7 by deep mutational scanning” (BMC Biology, 2022).

tested on: Escherichia coli TOP10; assay: shrunken log2 fold change of peptide-encoding DNA abundance (4.5 h post-induction vs induction); higher = less antimicrobial activity (less host growth inhibition); settings: time post-induction: 4.5 h; library: site-saturation at positions 5, 18, 19, 20
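Also: peptides expressed intracellularly from a pBAD plasmid library in pooled LB shake-flask culture, induced with 0.3% L-arabinose, DNA abundance read by NGS, three biological replicates, DESeq2 with apeglm shrinkage.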

Sequence | shrunken log2 fold change
RRIRVRPPRLPRPRPRPSSVPRP | -0.529
RRIRVRPPRLPRPRPRPSSWPRP | -0.062
RRIRVRPPRLPRPRPRPSVCPRP | 0.0223
RRIRVRPPRLPRPRPRPSVKPRP | -0.155
RRIRVRPPRLPRPRPRPSVTPRP | -0.222
RRIRVRPPRLPRPRPRPSWHPRP | -0.00555
RRIRVRPPRLPRPRPRPTAGPRP | -0.0283
RRIRVRPPRLPRPRPRPTARPRP | 0.293
RRIRVRPPRLPRPRPRPTCAPRP | 0.579
RRIRVRPPRLPRPRPRPTHTPRP | 0.0927
RRIRVRPPRLPRPRPRPTINPRP | -0.286
RRIRVRPPRLPRPRPRPTIRPRP | 0.0315
RRIRVRPPRLPRPRPRPTKCPRP | -0.458
RRIRVRPPRLPRPRPRPTLGPRP | 0.213
RRIRVRPPRLPRPRPRPTMCPRP | 0.15
RRIRVRPPRLPRPRPRPTMPPRP | 0.24
RRIRVRPPRLPRPRPRPTNIPRP | -0.783
RRIRVRPPRLPRPRPRPTNNPRP | -0.398
RRIRVRPPRLPRPRPRPTNWPRP | 0.202
RRIRVRPPRLPRPRPRPTQEPRP | 0.124
RRIRVRPPRLPRPRPRPTQRPRP | 0.565
RRIRVRPPRLPRPRPRPTQVPRP | 0.103
RRIRVRPPRLPRPRPRPTRVPRP | 0.0936
RRIRVRPPRLPRPRPRPTSCPRP | 0.961
RRIRVRPPRLPRPRPRPTSWPRP | 0.383

Sequence | shrunken log2 fold change
RRIRVRPPRLPRPRPRPTTYPRP | -0.465
RRIRVRPPRLPRPRPRPTVRPRP | 0.126
RRIRVRPPRLPRPRPRPTWMPRP | 0.0438
RRIRVRPPRLPRPRPRPVAVPRP | -0.05
RRIRVRPPRLPRPRPRPVCMPRP | 0.0454
RRIRVRPPRLPRPRPRPVDSPRP | 0.0147
RRIRVRPPRLPRPRPRPVEEPRP | -0.143
RRIRVRPPRLPRPRPRPVESPRP | -0.0208
RRIRVRPPRLPRPRPRPVFQPRP | -0.092
RRIRVRPPRLPRPRPRPVGIPRP | -0.0251
RRIRVRPPRLPRPRPRPVGKPRP | -0.0282
RRIRVRPPRLPRPRPRPVHCPRP | -0.0781
RRIRVRPPRLPRPRPRPVHKPRP | 0.129
RRIRVRPPRLPRPRPRPVIEPRP | 0.161
RRIRVRPPRLPRPRPRPVISPRP | -0.509
RRIRVRPPRLPRPRPRPVKKPRP | 0.02
RRIRVRPPRLPRPRPRPVLWPRP | 0.453
RRIRVRPPRLPRPRPRPVMFPRP | -0.305
RRIRVRPPRLPRPRPRPVMTPRP | 0.0124
RRIRVRPPRLPRPRPRPVNEPRP | 0.0839
RRIRVRPPRLPRPRPRPVNWPRP | 0.27
RRIRVRPPRLPRPRPRPVPEPRP | 0.564
RRIRVRPPRLPRPRPRPVREPRP | 0.3
RRIRVRPPRLPRPRPRPVRPPRP | 0.555
RRIRVRPPRLPRPRPRPVRVPRP | 0.905

Sequence | shrunken log2 fold change
RRIRVRPPRLPRPRPRPVSGPRP | 0.0836
RRIRVRPPRLPRPRPRPVSRPRP | 0.37
RRIRVRPPRLPRPRPRPVSWPRP | 0.469
RRIRVRPPRLPRPRPRPVTFPRP | -0.467
RRIRVRPPRLPRPRPRPVTKPRP | 0.261
RRIRVRPPRLPRPRPRPVVKPRP | -0.214
RRIRVRPPRLPRPRPRPVVMPRP | -0.271
RRIRVRPPRLPRPRPRPVVNPRP | -0.0959
RRIRVRPPRLPRPRPRPVYLPRP | -0.108
RRIRVRPPRLPRPRPRPWADPRP | -0.0322
RRIRVRPPRLPRPRPRPWAFPRP | -0.189
RRIRVRPPRLPRPRPRPWALPRP | -0.112
RRIRVRPPRLPRPRPRPWAWPRP | -0.00558
RRIRVRPPRLPRPRPRPWCAPRP | -0.0313
RRIRVRPPRLPRPRPRPWCGPRP | 0.0506
RRIRVRPPRLPRPRPRPWDGPRP | -0.00294
RRIRVRPPRLPRPRPRPWDRPRP | 0.0372
RRIRVRPPRLPRPRPRPWGDPRP | 0.148
RRIRVRPPRLPRPRPRPWHIPRP | -0.127
RRIRVRPPRLPRPRPRPWICPRP | -0.358
RRIRVRPPRLPRPRPRPWIVPRP | -0.266
RRIRVRPPRLPRPRPRPWKDPRP | -0.00963
RRIRVRPPRLPRPRPRPWKHPRP | -0.0202
RRIRVRPPRLPRPRPRPWKSPRP | 0.0332
RRIRVRPPRLPRPRPRPWNTPRP | -0.878

Sequence | shrunken log2 fold change
RRIRVRPPRLPRPRPRPWPEPRP | 0.465
RRIRVRPPRLPRPRPRPWPLPRP | -0.183
RRIRVRPPRLPRPRPRPWRFPRP | -0.0846
RRIRVRPPRLPRPRPRPWRLPRP | 0.426
RRIRVRPPRLPRPRPRPWSEPRP | -0.00215
RRIRVRPPRLPRPRPRPWSPPRP | -0.00502
RRIRVRPPRLPRPRPRPWWTPRP | -0.0418
RRIRVRPPRLPRPRPRPWWVPRP | 0.00127
RRIRVRPPRLPRPRPRPYAVPRP | -0.481
RRIRVRPPRLPRPRPRPYDDPRP | -0.000921
RRIRVRPPRLPRPRPRPYDKPRP | -1.05
RRIRVRPPRLPRPRPRPYEFPRP | 2.15
RRIRVRPPRLPRPRPRPYFIPRP | -0.72
RRIRVRPPRLPRPRPRPYGQPRP | -0.0728
RRIRVRPPRLPRPRPRPYGRPRP | -0.0856
RRIRVRPPRLPRPRPRPYHAPRP | -0.00207
RRIRVRPPRLPRPRPRPYHMPRP | -0.305
RRIRVRPPRLPRPRPRPYIPPRP | -1
RRIRVRPPRLPRPRPRPYKYPRP | -0.835
RRIRVRPPRLPRPRPRPYLEPRP | -0.141
RRIRVRPPRLPRPRPRPYLSPRP | -0.491
RRIRVRPPRLPRPRPRPYNKPRP | -0.707
RRIRVRPPRLPRPRPRPYNNPRP | -1.16
RRIRVRPPRLPRPRPRPYPHPRP | -0.342
RRIRVRPPRLPRPRPRPYQDPRP | -1.42

Sequence | shrunken log2 fold change
RRIRVRPPRLPRPRPRPYQGPRP | -0.236
RRIRVRPPRLPRPRPRPYQMPRP | -0.34
RRIRVRPPRLPRPRPRPYSHPRP | -1.25
RRIRVRPPRLPRPRPRPYSLPRP | -0.533
RRIRVRPPRLPRPRPRPYSVPRP | -0.265
RRIRVRPPRLPRPRPRPYTIPRP | -0.736
RRIRVRPPRLPRPRPRPYVGPRP | -0.0869
RRIRVRPPRLPRPRPRPYVIPRP | -0.189
RRIRVRPPRLPRPRPRPYWRPRP | -0.323
RRIRWRPPRLPRPRPRPACQPRP | 0.015
RRIRWRPPRLPRPRPRPADEPRP | 0.033
RRIRWRPPRLPRPRPRPAEEPRP | 3.62
RRIRWRPPRLPRPRPRPAFLPRP | -0.0114
RRIRWRPPRLPRPRPRPAFQPRP | 0.62
RRIRWRPPRLPRPRPRPAFSPRP | 0.383
RRIRWRPPRLPRPRPRPAGAPRP | 0.392
RRIRWRPPRLPRPRPRPAGFPRP | 0.272
RRIRWRPPRLPRPRPRPAHSPRP | 0.321
RRIRWRPPRLPRPRPRPAITPRP | 0.188
RRIRWRPPRLPRPRPRPALEPRP | 0.939
RRIRWRPPRLPRPRPRPAMHPRP | 0.341
RRIRWRPPRLPRPRPRPANGPRP | -0.186
RRIRWRPPRLPRPRPRPANRPRP | 0.0566
RRIRWRPPRLPRPRPRPANSPRP | 0.0236
RRIRWRPPRLPRPRPRPAPHPRP | 0.491

Sequence | shrunken log2 fold change
RRIRWRPPRLPRPRPRPAQAPRP | 0.237
RRIRWRPPRLPRPRPRPARKPRP | -0.0849
RRIRWRPPRLPRPRPRPARPPRP | 0.566
RRIRWRPPRLPRPRPRPASDPRP | 0.342
RRIRWRPPRLPRPRPRPATHPRP | 0.0538
RRIRWRPPRLPRPRPRPAWNPRP | 0.155
RRIRWRPPRLPRPRPRPAYFPRP | 0.125
RRIRWRPPRLPRPRPRPAYNPRP | -0.389
RRIRWRPPRLPRPRPRPAYRPRP | -0.00641
RRIRWRPPRLPRPRPRPCASPRP | -0.0152
RRIRWRPPRLPRPRPRPCCIPRP | 0.0413
RRIRWRPPRLPRPRPRPCEAPRP | 0.471
RRIRWRPPRLPRPRPRPCEEPRP | 0.0489
RRIRWRPPRLPRPRPRPCEYPRP | -0.379
RRIRWRPPRLPRPRPRPCHIPRP | -0.414
RRIRWRPPRLPRPRPRPCKDPRP | -0.381
RRIRWRPPRLPRPRPRPCKQPRP | -0.156
RRIRWRPPRLPRPRPRPCKVPRP | -0.0816
RRIRWRPPRLPRPRPRPCNPPRP | -0.00159
RRIRWRPPRLPRPRPRPCPEPRP | 0.0311
RRIRWRPPRLPRPRPRPCRAPRP | 0.217
RRIRWRPPRLPRPRPRPCRMPRP | -0.0166
RRIRWRPPRLPRPRPRPCRNPRP | -0.0199
RRIRWRPPRLPRPRPRPCSKPRP | -0.0575
RRIRWRPPRLPRPRPRPCSRPRP | -0.162
